Values quoted from earlier work, collected in PMC4899099.

Target: Carboxypeptidase E (UniProt P04836)
Sequence of UniProt P04836 (P04836 42-475): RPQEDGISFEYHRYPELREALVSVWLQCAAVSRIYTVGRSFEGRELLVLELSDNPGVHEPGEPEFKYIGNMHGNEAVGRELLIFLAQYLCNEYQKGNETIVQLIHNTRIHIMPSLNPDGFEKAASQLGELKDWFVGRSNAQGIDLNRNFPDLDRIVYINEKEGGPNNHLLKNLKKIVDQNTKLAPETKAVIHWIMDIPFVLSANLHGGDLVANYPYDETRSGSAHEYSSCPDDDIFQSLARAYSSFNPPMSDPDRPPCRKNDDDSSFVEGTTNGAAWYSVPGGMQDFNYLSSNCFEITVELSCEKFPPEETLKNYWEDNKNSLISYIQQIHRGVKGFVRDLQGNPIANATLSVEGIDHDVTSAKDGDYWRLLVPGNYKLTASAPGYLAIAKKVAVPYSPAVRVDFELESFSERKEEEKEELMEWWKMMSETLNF

Kd: 6 µM
Substance: N-POMC(1-26) 1-26 (from UniProt P01190)
